These results are taken from paper PMC4836274, “Cytokine-Like Factor 1, an Essential Facilitator of Cardiotrophin-Like Cytokine:Ciliary Neurotrophic Factor Receptor α Signaling and sorLA-Mediated Turnover” (Molecular and Cellular Biology, 2016).

The labels stand for the following.
B1: cardiotrophin-like cytokine (ligand, human, UniProt Q9UBD9 28-225, looked up)
chain: LNRTGDPGPGPSIQKTYDLTRYLEHQLRSLAGTYLNYLGPPFNEPDFNPPRLGAETLPRATVDLEVWRSLNDKLRLTQNYEAYSHLLCYLRGLNRQAATAELRRSLAHFCTSLQGLLGSIAGVMAALGYPLPQPLPGTEPTWTPGPAHSDFLQKMDDFWLLKELQTWLWRSAKDFNRLKKKMQPPAAAVTLHLGAHGF
notes: cardiotrophin-like cytokine (CLC), human recombinant; also called CLC; source: bought: R&D Systems (bacteria)
B2: recombinant soluble ciliary neurotrophic factor receptor α (receptor, human, UniProt P26992 23-342, looked up)
chain: QRHSPQEAPHVQYERLGSDVTLPCGTANWDAAVTWRVNGTDLAPDLLNGSQLVLHGLELGHSGLYACFHRDSWHLRHQVLLHVGLPPREPVLSCRSNTYPKGFYCSWHLPTPTYIPNTFNVTVLHGSKIMVCEKDPALKNRCHIRYMHLFSTIKYKVSISVSNALGHNATAITFDEFTIVKPDPPENVVARPVPSNPRRLEVTWQTPSTWPDPESFPLKFFLRYRPLILDQWQHVELSDGTAHTITDAYAGKEYIIQVAAKDNEIGTWSDWSVAAHATPWTEEPRHLTTEAQAAETTTSTTSSLAPPPTTKICDPGELGS
notes: CNTF receptor α, human, soluble recombinant form; also called sCNTFRα; soluble CNTFRα; source: bought: R&D Systems
B3: CLF-1–His (His-tagged cytokine-like factor-1) (natural protein, human, UniProt O75462 38-422, looked up)
chain: AHTAVISPQDPTLLIGSSLLATCSVHGDPPGATAEGLYWTLNGRRLPPELSRVLNASTLALALANLNGSRQRSGDNLVCHARDGSILAGSCLYVGLPPEKPVNISCWSKNMKDLTCRWTPGAHGETFLHTNYSLKYKLRWYGQDNTCEEYHTVGPHSCHIPKDLALFTPYEIWVEATNRLGSARSDVLTLDILDVVTTDPPPDVHVSRVGGLEDQLSVRWVSPPALKDFLFQAKYQIRYRVEDSVDWKVVDDVSNQTSCRLAGLKPGTVYFVQVRCNPFGIYGSKKAGIWSEWSHPTAASTPRSERPGPGGGACEPRGGEPSSGPVRRELKQFLGWLKKHAYCSNLSFRLYDQWRAWMQKSHKTRNQDEGILPSGRRGTARGPAR
notes: signal peptide in the construct; human CLF-1 coding cDNA (ImaGenes) amplified from the start codon to the C terminus, secreted into the medium; The second codon of the forward primer reads GCC (Ala); this lies in the signal peptide; The introduction gives 385 amino acids for human CLF-1; also called His-tagged CLF-1; source: HEK293 cells transfected, purified from serum-free medium (Talon resin) …
B4: cardiotrophin-like cytokine:cytokine-like factor-1 heterodimer (complex, human)
chain 1: B1 chain
chain 2: B3 chain
notes: cardiotrophin-like cytokine (CLC), human, subunit of the bought recombinant heterodimer; cytokine-like factor-1 (CLF-1; cytokine receptor-like factor 1), human, subunit of the bought recombinant heterodimer; also called CLC:CLF-1; His-tagged CLC:CLF-1; source: bought: R&D Systems (insect cells)

The target in assay [1] is B2. The assay is described as follows: SPR; Biacore 3000, CM5 chip; sCNTFRα immobilised at 66 to 86 fmol/mm^2; 25°C; 10 mM HEPES, 150 mM NaCl, 1.5 mM CaCl2, 1 mM EGTA, 0.005% Tween 20, pH 7.4; Langmuir 1:1 model, global fitting. Particulars: both partners purified. In general terms: SPR reads the build-up and loss of mass on a sensor chip optically.
In a further assay the target is T1, sorLA Vps10p-D (human).
T1 chain: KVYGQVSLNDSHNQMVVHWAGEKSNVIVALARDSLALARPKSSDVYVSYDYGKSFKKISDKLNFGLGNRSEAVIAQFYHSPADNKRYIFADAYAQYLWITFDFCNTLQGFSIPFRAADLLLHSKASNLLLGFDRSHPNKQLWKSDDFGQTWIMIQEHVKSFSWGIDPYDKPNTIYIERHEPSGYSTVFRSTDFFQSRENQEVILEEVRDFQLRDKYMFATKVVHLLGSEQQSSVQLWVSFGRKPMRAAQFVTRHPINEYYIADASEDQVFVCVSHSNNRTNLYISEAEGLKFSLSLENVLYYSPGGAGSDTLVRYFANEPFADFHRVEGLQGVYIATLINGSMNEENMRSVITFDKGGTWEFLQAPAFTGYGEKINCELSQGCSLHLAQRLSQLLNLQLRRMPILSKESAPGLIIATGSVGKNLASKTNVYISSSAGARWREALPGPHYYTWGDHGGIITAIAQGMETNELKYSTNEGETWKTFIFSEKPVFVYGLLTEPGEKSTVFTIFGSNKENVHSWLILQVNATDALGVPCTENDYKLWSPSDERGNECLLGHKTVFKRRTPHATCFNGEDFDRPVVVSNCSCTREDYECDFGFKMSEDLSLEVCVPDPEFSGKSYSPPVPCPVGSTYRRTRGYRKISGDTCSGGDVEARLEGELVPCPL
The assay is described as follows: SPR.

The target of assay [2] is T2, soluble sorLA (entire luminal part of sorLA) (human, UniProt Q92673 82-2137).
T2 construct: sorLA, human cDNA, the entire luminal (extracellular) part; also called luminal domain of sorLA; ectodomain of sorLA
Nature of the assay: SPR; immobilised sorLA preincubated with buffer or with 5 μM inhibitor (sorLA propeptide or RAP) before the ligand was added. The settings on record: both partners purified.

Assay [3] concerns the target B4. The assay is described as follows: SPR; Biacore 3000, CM5 chip; sCNTFRα immobilised at 66 to 86 fmol/mm^2; 25°C; 10 mM HEPES, 150 mM NaCl, 1.5 mM CaCl2, 1 mM EGTA, 0.005% Tween 20, pH 7.4; Langmuir 1:1 model, global fitting. Particulars: both partners purified.
Assay [4] deals with T3, recombinant soluble ciliary neurotrophic factor receptor α (human), P26992.
T3 chain: B2 chain
Described as above. The settings on record: remark: other sources report otherwise.

In assay [5] the target is T2, soluble sorLA (entire luminal part of …). Nature of the assay: SPR; Biacore 3000, CM5 chip; soluble sorLA (entire luminal part) immobilised at 66 to 86 fmol/mm^2; 25°C; 10 mM HEPES, 150 mM NaCl, 1.5 mM CaCl2, 1 mM EGTA, 0.005% Tween 20, pH 7.4; Langmuir 1:1 model, global fitting. The settings on record: both partners purified.
Assay [6] has as its target full-length sorLA in transfected HEK293 cells (human, UniProt Q92673 82-2214). Nature of the assay: cell-based or functional assay.

T2 sequence (Q92673 82-2137): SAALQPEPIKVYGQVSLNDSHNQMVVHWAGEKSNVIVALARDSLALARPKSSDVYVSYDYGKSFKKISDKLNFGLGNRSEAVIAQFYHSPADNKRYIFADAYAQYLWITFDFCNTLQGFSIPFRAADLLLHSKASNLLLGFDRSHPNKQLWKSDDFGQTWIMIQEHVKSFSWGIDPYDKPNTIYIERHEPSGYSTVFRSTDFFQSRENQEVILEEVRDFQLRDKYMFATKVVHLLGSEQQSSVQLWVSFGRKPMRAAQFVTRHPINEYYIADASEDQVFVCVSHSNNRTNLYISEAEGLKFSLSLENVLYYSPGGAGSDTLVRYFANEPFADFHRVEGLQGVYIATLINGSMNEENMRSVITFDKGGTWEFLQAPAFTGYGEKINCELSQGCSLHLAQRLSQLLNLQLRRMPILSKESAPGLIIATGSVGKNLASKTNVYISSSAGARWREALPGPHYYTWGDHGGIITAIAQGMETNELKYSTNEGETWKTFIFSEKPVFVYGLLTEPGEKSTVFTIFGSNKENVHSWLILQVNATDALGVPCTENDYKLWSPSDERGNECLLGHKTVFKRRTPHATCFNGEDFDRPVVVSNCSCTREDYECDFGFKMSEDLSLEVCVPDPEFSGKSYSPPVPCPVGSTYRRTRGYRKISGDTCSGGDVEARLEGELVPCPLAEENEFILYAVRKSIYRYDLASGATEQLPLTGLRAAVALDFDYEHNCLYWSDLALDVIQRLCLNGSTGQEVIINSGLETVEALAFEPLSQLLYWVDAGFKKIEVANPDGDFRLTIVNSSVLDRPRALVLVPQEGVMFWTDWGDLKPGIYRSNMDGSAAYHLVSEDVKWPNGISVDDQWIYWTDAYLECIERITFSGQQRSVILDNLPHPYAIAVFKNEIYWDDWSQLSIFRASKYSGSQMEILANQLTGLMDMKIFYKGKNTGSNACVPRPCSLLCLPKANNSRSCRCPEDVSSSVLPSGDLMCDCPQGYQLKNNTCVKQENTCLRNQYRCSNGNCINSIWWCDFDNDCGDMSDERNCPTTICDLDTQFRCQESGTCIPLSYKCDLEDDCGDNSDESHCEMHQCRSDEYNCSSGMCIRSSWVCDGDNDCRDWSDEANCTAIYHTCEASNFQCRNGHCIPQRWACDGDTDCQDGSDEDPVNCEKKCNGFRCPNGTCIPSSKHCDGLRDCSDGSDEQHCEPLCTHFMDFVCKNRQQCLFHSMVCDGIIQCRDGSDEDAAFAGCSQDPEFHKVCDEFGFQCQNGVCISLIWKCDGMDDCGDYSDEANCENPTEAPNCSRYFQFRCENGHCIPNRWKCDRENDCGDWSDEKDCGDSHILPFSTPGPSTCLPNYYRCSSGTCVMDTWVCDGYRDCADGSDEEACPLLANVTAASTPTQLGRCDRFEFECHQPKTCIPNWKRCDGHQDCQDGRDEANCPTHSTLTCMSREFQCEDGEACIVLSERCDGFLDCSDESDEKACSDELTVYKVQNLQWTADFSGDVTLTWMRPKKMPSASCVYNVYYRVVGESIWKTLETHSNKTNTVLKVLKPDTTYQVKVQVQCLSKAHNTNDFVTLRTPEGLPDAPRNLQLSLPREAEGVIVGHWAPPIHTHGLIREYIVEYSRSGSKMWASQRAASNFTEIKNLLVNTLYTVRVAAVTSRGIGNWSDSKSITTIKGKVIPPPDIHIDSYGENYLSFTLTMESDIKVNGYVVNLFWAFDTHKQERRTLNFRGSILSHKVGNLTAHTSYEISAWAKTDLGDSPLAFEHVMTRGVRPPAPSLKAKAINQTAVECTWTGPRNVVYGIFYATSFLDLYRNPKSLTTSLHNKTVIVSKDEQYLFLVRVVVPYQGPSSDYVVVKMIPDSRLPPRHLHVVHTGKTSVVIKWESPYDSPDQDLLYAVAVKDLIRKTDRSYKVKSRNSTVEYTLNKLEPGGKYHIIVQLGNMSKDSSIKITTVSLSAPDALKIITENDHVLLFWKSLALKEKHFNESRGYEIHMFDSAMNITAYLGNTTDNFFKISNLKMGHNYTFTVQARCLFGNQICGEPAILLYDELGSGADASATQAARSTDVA
Sequence of full-length sorLA in transfected HEK293 cells (Q92673 82-2214): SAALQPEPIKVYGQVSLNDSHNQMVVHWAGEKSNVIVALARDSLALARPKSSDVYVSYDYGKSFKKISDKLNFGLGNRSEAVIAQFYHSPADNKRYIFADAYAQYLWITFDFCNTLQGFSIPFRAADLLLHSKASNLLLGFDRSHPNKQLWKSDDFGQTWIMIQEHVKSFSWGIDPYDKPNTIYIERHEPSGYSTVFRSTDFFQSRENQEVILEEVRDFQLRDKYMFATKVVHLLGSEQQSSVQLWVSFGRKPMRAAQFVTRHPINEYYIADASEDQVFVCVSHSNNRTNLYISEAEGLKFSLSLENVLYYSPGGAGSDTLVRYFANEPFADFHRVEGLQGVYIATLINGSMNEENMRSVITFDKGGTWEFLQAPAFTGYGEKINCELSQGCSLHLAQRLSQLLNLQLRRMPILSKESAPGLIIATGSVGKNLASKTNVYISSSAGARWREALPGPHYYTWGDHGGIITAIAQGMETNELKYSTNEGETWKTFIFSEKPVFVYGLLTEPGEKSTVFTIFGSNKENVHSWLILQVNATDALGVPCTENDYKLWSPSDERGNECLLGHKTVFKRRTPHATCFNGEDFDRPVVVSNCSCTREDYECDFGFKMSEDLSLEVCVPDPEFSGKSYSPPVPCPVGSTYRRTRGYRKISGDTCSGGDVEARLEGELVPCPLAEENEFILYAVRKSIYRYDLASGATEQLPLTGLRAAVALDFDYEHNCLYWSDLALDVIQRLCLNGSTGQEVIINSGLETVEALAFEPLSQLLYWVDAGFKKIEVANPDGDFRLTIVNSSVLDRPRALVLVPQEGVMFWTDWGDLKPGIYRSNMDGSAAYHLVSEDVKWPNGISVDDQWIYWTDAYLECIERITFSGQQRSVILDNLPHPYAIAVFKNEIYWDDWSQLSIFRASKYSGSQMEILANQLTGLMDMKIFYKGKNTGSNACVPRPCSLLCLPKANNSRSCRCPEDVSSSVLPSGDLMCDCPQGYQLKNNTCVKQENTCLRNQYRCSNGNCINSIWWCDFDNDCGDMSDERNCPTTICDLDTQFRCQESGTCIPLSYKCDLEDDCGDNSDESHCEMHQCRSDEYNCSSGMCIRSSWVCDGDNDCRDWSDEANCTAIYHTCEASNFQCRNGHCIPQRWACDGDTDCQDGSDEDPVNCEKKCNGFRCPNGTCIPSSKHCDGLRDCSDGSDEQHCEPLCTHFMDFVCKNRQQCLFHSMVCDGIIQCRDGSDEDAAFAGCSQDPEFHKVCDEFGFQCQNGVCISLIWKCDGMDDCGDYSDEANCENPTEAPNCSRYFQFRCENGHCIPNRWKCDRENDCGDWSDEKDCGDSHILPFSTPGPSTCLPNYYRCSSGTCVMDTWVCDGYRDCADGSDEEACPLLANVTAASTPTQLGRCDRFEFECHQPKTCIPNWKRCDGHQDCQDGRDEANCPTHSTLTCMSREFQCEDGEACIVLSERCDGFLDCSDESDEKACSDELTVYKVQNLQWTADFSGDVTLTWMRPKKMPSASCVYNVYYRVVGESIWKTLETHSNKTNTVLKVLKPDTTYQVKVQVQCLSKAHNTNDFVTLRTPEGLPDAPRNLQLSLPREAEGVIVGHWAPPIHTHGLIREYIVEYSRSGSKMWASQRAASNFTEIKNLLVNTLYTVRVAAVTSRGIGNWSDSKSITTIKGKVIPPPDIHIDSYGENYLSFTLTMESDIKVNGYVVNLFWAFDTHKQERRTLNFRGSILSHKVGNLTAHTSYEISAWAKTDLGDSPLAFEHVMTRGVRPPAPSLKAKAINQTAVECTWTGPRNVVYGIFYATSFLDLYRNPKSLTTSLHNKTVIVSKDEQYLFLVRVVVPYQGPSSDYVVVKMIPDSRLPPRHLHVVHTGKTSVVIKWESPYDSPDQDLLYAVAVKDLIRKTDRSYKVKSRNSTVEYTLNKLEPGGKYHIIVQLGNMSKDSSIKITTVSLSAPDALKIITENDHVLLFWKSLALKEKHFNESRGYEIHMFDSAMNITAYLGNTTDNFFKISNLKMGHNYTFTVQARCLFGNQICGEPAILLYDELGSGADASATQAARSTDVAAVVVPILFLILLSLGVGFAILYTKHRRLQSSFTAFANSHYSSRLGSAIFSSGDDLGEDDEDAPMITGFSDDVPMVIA

Consider B1, for which, in assay [1], the dissociation constant (Kd) stood at 66 nM.

Consider B2, for which the values for the Kd (in the assay with sorLA Vps10p-D; in assay [3]) were roughly 14 nM and 0.3 nM, respectively. In addition, the binding result in assay [2] is “binds”.

Regarding B3, the dissociation constant (Kd) in assay [4] and in assay [5] was 4 nM throughout.

As for B4, the “pSTAT3 in CNTFRα-deficient Ba/F3 cells (gp130/LIFRβ) stimulated with CLC:CLF-1 and sCNTFRα, sorLA transfectants against untransfected cells” value in assay [6] is roughly 4 fold. Also, the affinity in assay [5], expressed as Kd, was 5 nM.

Usually Kd stands for the equilibrium constant for the complex coming apart.
